This is an account of results in the supplement of paper PMC9112550, “Optimization of the antimicrobial peptide Bac7 by deep mutational scanning” (BMC Biology, 2022).

The data set deals with Escherichia coli TOP10. Description: shrunken log2 fold change of peptide-encoding DNA abundance (4.5 h post-induction vs induction); higher = less antimicrobial activity (less host growth inhibition). Conditions: time post-induction: 4.5 h; library: site-saturation at positions 5, 18, 19, 20.
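Note: peptides expressed intracellularly from a pBAD plasmid library in pooled LB shake-flask culture, induced with 0.3% L-arabinose, DNA abundance read by NGS, three biological replicates, DESeq2 with apeglm shrinkage.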

Consider RRIRMRPPRLPRPRPRPGFWPRP, for which the “shrunken log2 fold change” value was found to be 0.836.
For RRIRKRPPRLPRPRPRPSTCPRP, the “shrunken log2 fold change” value was -0.0517.
Take RRIRFRPPRLPRPRPRPGKYPRP: the “shrunken log2 fold change” value was -0.586.
As to RRIRGRPPRLPRPRPRPNSHPRP, the “shrunken log2 fold change” value is 0.285.
For RRIRCRPPRLPRPRPRPPSDPRP, the “shrunken log2 fold change” value came to 0.213.
Take RRIRFRPPRLPRPRPRPAEDPRP: the “shrunken log2 fold change” value is 0.0423.
As for RRIRIRPPRLPRPRPRPRILPRP, the “shrunken log2 fold change” value is -0.188.
For RRIRIRPPRLPRPRPRPHHAPRP the value was 0.0597; for RRIRERPPRLPRPRPRPQEYPRP, -0.01.
Regarding RRIRVRPPRLPRPRPRPLTQPRP, the “shrunken log2 fold change” value turned out to be 0.149.
Consider RRIRIRPPRLPRPRPRPYHRPRP, for which the “shrunken log2 fold change” value is -0.00133.
For RRIRMRPPRLPRPRPRPARWPRP the value was 1.49; for RRIRPRPPRLPRPRPRPKGHPRP, 0.106; for RRIRYRPPRLPRPRPRPMTIPRP, -0.936.
For RRIRGRPPRLPRPRPRPEDQPRP, the “shrunken log2 fold change” value is 0.0373.
Take RRIRIRPPRLPRPRPRPAPYPRP: the “shrunken log2 fold change” value was -0.406.
To RRIRHRPPRLPRPRPRPDDMPRP belongs -0.11; to RRIRERPPRLPRPRPRPMCHPRP, 0.0346.
For RRIRNRPPRLPRPRPRPSWHPRP the value was -0.535; for RRIRHRPPRLPRPRPRPAYCPRP, 0.119.
For RRIRSRPPRLPRPRPRPPEPPRP the value was 0.373; for RRIRGRPPRLPRPRPRPLYFPRP, -0.131; for RRIRTRPPRLPRPRPRPKWFPRP, -0.0479.
Turning to RRIRSRPPRLPRPRPRPAHWPRP, the “shrunken log2 fold change” value was 0.416.
Regarding RRIRERPPRLPRPRPRPQHWPRP, the “shrunken log2 fold change” value was -0.046.
To RRIRRRPPRLPRPRPRPSHYPRP belongs -0.131; to RRIRMRPPRLPRPRPRPAELPRP, 0.604; to RRIRGRPPRLPRPRPRPWRAPRP, 0.311.
As for RRIRARPPRLPRPRPRPQNIPRP, the “shrunken log2 fold change” value is -0.56.
In the case of RRIRDRPPRLPRPRPRPTWYPRP, the “shrunken log2 fold change” value was -0.238.
For the sequence RRIRFRPPRLPRPRPRPQFVPRP, the “shrunken log2 fold change” value was -0.434.
For RRIRTRPPRLPRPRPRPWGIPRP, the “shrunken log2 fold change” value is -0.0774.
Take RRIRERPPRLPRPRPRPSTQPRP: the “shrunken log2 fold change” value is -0.177.
Turning to RRIRPRPPRLPRPRPRPFCRPRP, the “shrunken log2 fold change” value came out at 0.00205.
Regarding RRIRNRPPRLPRPRPRPFSPPRP, the “shrunken log2 fold change” value is -0.148.
With RRIRRRPPRLPRPRPRPASNPRP, the “shrunken log2 fold change” value came to 0.472.
For RRIRMRPPRLPRPRPRPGVAPRP the value was 1.02; for RRIRWRPPRLPRPRPRPTNVPRP, -0.0165; for RRIRPRPPRLPRPRPRPIQRPRP, 0.364.
RRIRARPPRLPRPRPRPGSDPRP: the “shrunken log2 fold change” value worked out at 0.536.
RRIRIRPPRLPRPRPRPILKPRP: the “shrunken log2 fold change” value turned out to be 0.134.
For the sequence RRIRQRPPRLPRPRPRPIQFPRP, the “shrunken log2 fold change” value was -0.282.
To RRIRFRPPRLPRPRPRPKEHPRP belongs -0.357; to RRIRARPPRLPRPRPRPTEYPRP, -0.103.
Regarding RRIRLRPPRLPRPRPRPCIIPRP, the “shrunken log2 fold change” value was -0.394.
For RRIRCRPPRLPRPRPRPDKVPRP, the “shrunken log2 fold change” value was -0.224.
Regarding RRIRERPPRLPRPRPRPEHMPRP, the “shrunken log2 fold change” value is -0.0272.
Take RRIRARPPRLPRPRPRPKNFPRP: the “shrunken log2 fold change” value was 0.251.
As to RRIRERPPRLPRPRPRPVFGPRP, the “shrunken log2 fold change” value was -0.0574.
For RRIRFRPPRLPRPRPRPHYQPRP the value was -0.0104.
For RRIRLRPPRLPRPRPRPEVNPRP the value was 0.0855; for RRIRNRPPRLPRPRPRPCQTPRP, -0.0964; for RRIRQRPPRLPRPRPRPHIRPRP, -0.209.
For the sequence RRIRTRPPRLPRPRPRPNTHPRP, the “shrunken log2 fold change” value is -0.451.
In the case of RRIRYRPPRLPRPRPRPMTEPRP, the “shrunken log2 fold change” value was -0.0202.
Take RRIRYRPPRLPRPRPRPDICPRP: the “shrunken log2 fold change” value is -0.0244.
For RRIRLRPPRLPRPRPRPRQGPRP, the “shrunken log2 fold change” value came to 0.252.
To RRIRYRPPRLPRPRPRPCVMPRP belongs 0.0476.
RRIRCRPPRLPRPRPRPTLQPRP: the “shrunken log2 fold change” value worked out at 0.279.
In the case of RRIRFRPPRLPRPRPRPSYQPRP, the “shrunken log2 fold change” value was -0.451.
Regarding RRIRTRPPRLPRPRPRPGKFPRP, the “shrunken log2 fold change” value was -0.0892.
For RRIRLRPPRLPRPRPRPGAAPRP the value was 0.543; for RRIRTRPPRLPRPRPRPSWRPRP, 0.153.
Turning to RRIRWRPPRLPRPRPRPYEVPRP, the “shrunken log2 fold change” value is -0.114.
Consider RRIRQRPPRLPRPRPRPAEIPRP, for which the “shrunken log2 fold change” value was -0.219.
To RRIRYRPPRLPRPRPRPFAVPRP belongs -1.09; to RRIRERPPRLPRPRPRPIVIPRP, -0.233.
To RRIRTRPPRLPRPRPRPWNNPRP belongs -0.256; to RRIRTRPPRLPRPRPRPRMCPRP, 0.00183.
Take RRIRSRPPRLPRPRPRPIWFPRP: the “shrunken log2 fold change” value turned out to be 0.112.
With RRIRPRPPRLPRPRPRPCAYPRP, the “shrunken log2 fold change” value is -0.311.
As to RRIRARPPRLPRPRPRPIIGPRP, the “shrunken log2 fold change” value is -0.065.
Regarding RRIRLRPPRLPRPRPRPVFVPRP, the “shrunken log2 fold change” value was -0.198.
As to RRIRQRPPRLPRPRPRPIALPRP, the “shrunken log2 fold change” value is -0.213.
For RRIRLRPPRLPRPRPRPGSMPRP, the “shrunken log2 fold change” value was -0.192.
Take RRIRFRPPRLPRPRPRPVSQPRP: the “shrunken log2 fold change” value was 0.0413.
Turning to RRIRDRPPRLPRPRPRPELGPRP, the “shrunken log2 fold change” value was found to be 1.53.
For RRIRGRPPRLPRPRPRPREAPRP the value was 1.31; for RRIRSRPPRLPRPRPRPQFVPRP, -0.184.
For RRIRLRPPRLPRPRPRPRVRPRP, the “shrunken log2 fold change” value was 0.325.
RRIRFRPPRLPRPRPRPYATPRP: the “shrunken log2 fold change” value is -0.419.
Regarding RRIRERPPRLPRPRPRPDDMPRP, the “shrunken log2 fold change” value is -0.0903.
To RRIRLRPPRLPRPRPRPQYGPRP belongs 0.0165; to RRIRIRPPRLPRPRPRPADMPRP, -0.0222; to RRIRERPPRLPRPRPRPRRYPRP, -0.184.
Consider RRIRCRPPRLPRPRPRPGNDPRP, for which the “shrunken log2 fold change” value was found to be 0.00582.
In the case of RRIRLRPPRLPRPRPRPSCWPRP, the “shrunken log2 fold change” value turned out to be 0.0662.
Regarding RRIRWRPPRLPRPRPRPHISPRP, the “shrunken log2 fold change” value came out at 0.00485.
For RRIRVRPPRLPRPRPRPNERPRP, the “shrunken log2 fold change” value is 0.0435.
Regarding RRIRLRPPRLPRPRPRPDYQPRP, the “shrunken log2 fold change” value is -0.137.
As to RRIRLRPPRLPRPRPRPQPSPRP, the “shrunken log2 fold change” value came to 0.169.
